The text below walks through data of patent US20240209086A1 (PETMEDIX, published 2024).

B1: PMX200 (monospecific anti-canine CD3, canine IgG-B effector function deficient Fc) (antibody, V domains shown)
VH: ELTLQESGPGLVKPSQTLSLTCIVSGGSVTSSYYWNWIRQSPGRGLEWMGYWTGNTNYNPALQGRIFITADTAKNQFSLQLRSMTTEDTAVYYCARGGYGYHYGMDYWGHGTSVFVSS
VL: SYVLTQLPSKSVALKQPAHITCGGDNIGSKRVHWYQQKLGQAPALIISFDNSRPTGIPERFSGANSGNTATLTISGALAEDEADYYCQVWDSTAKASIFGGGTHLTVL
B2: PMX191 (monospecific anti-canine CD3, canine IgG-B effector function deficient Fc) (antibody, V domains shown)
VH: EVQLVESGGDLVKPAGSLRLSCVASGFTFSDYSMSWVRQGPEKGLQLVAGMNSDGSTTYYTDAVRGRFTISRDNAKNTMYLQMNSLRDEDTAIYYCAKGAAAPDYWGQGTLVTVSS
VL: SYELTQPPSVNVTLRETAHITCGGDRIGSKYVQWIQQIPGQAPVVIIYKDNNRPTGIPERFSGANSGNTATLTISGALAEDEADYYCQVGDNYTWVFGEGTQLTVL
B3: PMX192 (monospecific anti-canine CD3, canine IgG-B effector function deficient Fc) (antibody, V domains shown)
VH: EVQLVESGGDLVKPAGSLRLSCVASGFTFSDYSMSWVRQAPEKGLQLVAGINGDGSTTYYTDAVKGRFTISRDNAKNTVYLQMNSLRAEDTAMYYCAKGAGTGDFWGQGTLVTVSS
VL: B2 VL with D25A, R26S, S29R, N51S, N92S, Y93G, T94A
B4: PMX185 (monospecific anti-canine CD3, canine IgG-B effector function deficient Fc) (antibody)
heavy: EVQLVESGGDLVKPGGSLRLSCVASGFTFSSYHMSWVRQAPGKGLQWVASINSGGSRTSYVDAVKGRFTISRDNAKKTLYLQMNSLRAEDTAVYYCASGRTGPKLGLGDYGMDSWGHGTSLFVSSASTTAPSVFPLAPSCGSTSGSTVALACLVSGYFPEPVTVSWNSGSLTSGVHTFPSVLQSSGLYSLSSMVTVPSSRWPSETFTCNVAHPASKTKVDKPVPKRENGRVPRPPDCPKCPAPESLGGPSVFIFPPKPKDTLLIARTPEVTCVVVDLGREDPEVQISWFVDGKQMQTAKTQPREEQFNGTYRVVSVLPIGHQDWLKGKQFTCKVNHIGLPSPIERTISKARGQAHQPSVYVLPPSREELSKNTVSLTCLIKDFFPPDIDVEWQSNGQQEPESKYRTTPPQLDEDGSYFLYSKLSVDKSRWQRGDTFICAVMHEALHNHYTQKSLSHSPGK
VL: SYVLTQLPSKNVTLKQPAHITCGGDNIGSKSVHWYQQKLGQAPVMIIYYDSSRPTGIPERFSGANSGNTATLTISGALAEDEADYYCQVWDSSAKAWVFGEGTQLTVL
B5: PMX186 (monospecific anti-canine CD3, canine IgG-B effector function deficient Fc) (antibody)
heavy: EVKLVESGGDLVKPGGSLRLSCVASGVTFSRYYMSWVRQAPGKGLQWVAYINSGGSTTSYADAVKGRFTISRDNAKNTLYLQMNSLRAEDTAVYYCASEGVGEIYGYKDFGMDYWGHGTSLFVSSASTTAPSVFPLAPSCGSTSGSTVALACLVSGYFPEPVTVSWNSGSLTSGVHTFPSVLQSSGLYSLSSMVTVPSSRWPSETFTCNVAHPASKTKVDKPVPKRENGRVPRPPDCPKCPAPESLGGPSVFIFPPKPKDTLLIARTPEVTCVVVDLGREDPEVQISWFVDGKQMQTAKTQPREEQFNGTYRVVSVLPIGHQDWLKGKQFTCKVNHIGLPSPIERTISKARGQAHQPSVYVLPPSREELSKNTVSLTCLIKDFFPPDIDVEWQSNGQQEPESKYRTTPPQLDEDGSYFLYSKLSVDKSRWQRGDTFICAVMHEALHNHYTQKSLSHSPGK
VL: B4 VL with M45L, S52R
B6: PMX190 (monospecific anti-canine CD3, canine IgG-B effector function deficient Fc) (antibody)
heavy: EVQLVESGGDLVKPGGSLRLSCVASGFTFSSYQMSWVRQAPGKGLQWVAYISSGGGRTTYADAVRGRLTISRDNAKNTLYLQMNSLRAEDAAVYYCAREGGGEIYGYKDYGMDYWGHGTSLFVSSASTTAPSVFPLAPSCGSTSGSTVALACLVSGYFPEPVTVSWNSGSLTSGVHTFPSVLQSSGLYSLSSMVTVPSSRWPSETFTCNVAHPASKTKVDKPVPKRENGRVPRPPDCPKCPAPESLGGPSVFIFPPKPKDTLLIARTPEVTCVVVDLGREDPEVQISWFVDGKQMQTAKTQPREEQFNGTYRVVSVLPIGHQDWLKGKQFTCKVNHIGLPSPIERTISKARGQAHQPSVYVLPPSREELSKNTVSLTCLIKDFFPPDIDVEWQSNGQQEPESKYRTTPPQLDEDGSYFLYSKLSVDKSRWQRGDTFICAVMHEALHNHYTQKSLSHSPGK
VL: B4 VL with M45L
B7: PMX227 (monospecific anti-canine CD20, canine IgG-B, lambda C5) (antibody, V domains shown)
VH: EMQLVESGGALVKPGGSLRLSCVASGFTFRRYHMSWVRQAPGQGLQWVAYIDSDGSPTSYGDSVKGRFTISRDNAKNTLFLQMNSLRVDDTAVYYCTTLDYWGRGTLVTVSS
VL: SYVLTQVPSKNVTLKQPAHITCGGDNIGGKSVHWYQQKLGQAPLLIIYYDTRRPTGIPERFSGANSGNTATLTISRALAEDEADYYCQVWDSSGNVFGGGTHLTVIG
B8: PMX229 (monospecific anti-canine CD20, canine IgG-B, lambda C5) (antibody, V domains shown)
VH: EVQLVESGGDLVKPGGSLRLSCVASGITFSRYHMSWVRQAPGKGLQWVAFINTGRSSTNYADAVAGRFTISRDNAKNTLYLQMNGLTVEDTAVYYCSTLDYWGQGTLVTVSS
VL: B7 VL with V7L, N11S, G29S, L44I, T51N, R52N, R76G, Q88H, G94V, I106L
B9: PMX228 (monospecific anti-canine CD20, canine IgG-B, lambda C5) (antibody, V domains shown)
VH: EVQLVQSGGDLVKPGGSLRLSCVASGYTFTRYHMSWVRQAPGKGLQWVAFINSDGTGITYGDAVKGRFTISRDNAKNTLYLQMNSLRAEDTAIYYCTTFDSWGQGTLVTVSS
VL: B7 VL with V7L, G29S, L44I, T51S, R76G, I106L
B10: PMX230 (monospecific anti-canine CD20, canine IgG-B, lambda C5) (antibody, V domains shown)
VH: EVHLVESGGDLVKPGGSLRLSCVASGITFNRYYMNWVRQTPGKGLQWVAYIDSGGSPTTYADAVKGRFTISRDNAKNTLYLQMNSLRAEDTAVYYCTSFDYWGQGTLVTVSS
VL: B7 VL with V7L, G29S, L44I, R52S, R76G, G94A, I106L
B11: PMX265 (monospecific anti-canine CD20, canine IgG-B, lambda C5) (antibody, V domains shown)
VH: B9 VH with T30S
VL: B7 VL with V7L, G29S, L44I, T51S, R76G, I106L

Positions count from the first letter of the chain named.

Chain of canine CD3 on canine T cells (canine PBMC) (P27597 22-202 limits assumed, chain 1 of 3): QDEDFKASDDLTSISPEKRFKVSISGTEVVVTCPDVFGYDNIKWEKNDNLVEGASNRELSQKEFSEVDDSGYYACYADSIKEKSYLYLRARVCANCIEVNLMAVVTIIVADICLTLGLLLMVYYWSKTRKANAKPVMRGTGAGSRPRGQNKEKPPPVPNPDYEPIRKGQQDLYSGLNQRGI
Chain of canine CD3 on canine T cells (canine PBMC) (chain, as listed by the source limits assumed, chain 2 of 3): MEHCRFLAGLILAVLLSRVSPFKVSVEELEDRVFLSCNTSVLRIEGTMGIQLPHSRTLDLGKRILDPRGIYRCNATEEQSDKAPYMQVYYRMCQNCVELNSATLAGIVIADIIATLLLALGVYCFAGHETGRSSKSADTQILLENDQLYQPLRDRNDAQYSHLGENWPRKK
Chain of canine CD3 on canine T cells (canine PBMC) (chain, as listed by the source limits assumed, chain 3 of 3): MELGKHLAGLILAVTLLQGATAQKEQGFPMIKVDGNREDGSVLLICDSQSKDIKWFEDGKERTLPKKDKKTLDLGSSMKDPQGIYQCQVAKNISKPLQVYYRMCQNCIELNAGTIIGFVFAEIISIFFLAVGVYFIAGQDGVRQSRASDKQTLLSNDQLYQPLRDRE

The first test addresses canine CD3 on canine T cells (canine PBMC) (canine, UniProt P27597 22-202). The test can be described thus: cell-based or functional assay.
Take B1: the “CD25 Activation, Day 6, IS” value is 8.83; the “CD25 Activation, Day 6, PB” value stood at 19.5; the “CD25 Activation, Day 9, IS” value was found to be 13.1; the “CD25 Activation, Day 9, PB” value was 15. The “IFNy Concentration pg/ml, Day 6, IS” value turned out to be 59.6 pg/mL; the “IFNy Concentration pg/ml, Day 9, IS” value was determined as 363 pg/mL; the “IFNy Concentration pg/ml, Day 9, PB” value is 822 pg/mL; the “Ki67 Proliferation, Day 6, IS” value amounted to 0.76. For the same molecule, the “Ki67 Proliferation, Day 6, PB” value was 2.92; the “Ki67 Proliferation, Day 9, IS” value worked out at 1.29; the “Ki67 Proliferation, Day 9, PB” value worked out at 0.78.

As to B2, the “CD25 Activation, Day 6, IS” value came out at 8.97; the “CD25 Activation, Day 6, PB” value was found to be 10.5; the “CD25 Activation, Day 9, IS” value was 14.2; the “CD25 Activation, Day 9, PB” value was 14.9. Further, the “IFNy Concentration pg/ml, Day 6, IS” value was 31.9 pg/mL; the “IFNy Concentration pg/ml, Day 9, IS” value was determined as 370 pg/mL; the “IFNy Concentration pg/ml, Day 9, PB” value was determined as 744 pg/mL; the “Ki67 Proliferation, Day 6, IS” value is 0.66. For the same molecule, the “Ki67 Proliferation, Day 6, PB” value was 0.35; the “Ki67 Proliferation, Day 9, IS” value turned out to be 2.89; the “Ki67 Proliferation, Day 9, PB” value was found to be 0.6.

B3: the “CD25 Activation, Day 6, IS” value stood at 10.4; the “CD25 Activation, Day 6, PB” value turned out to be 12.7; the “CD25 Activation, Day 9, IS” value came to 10.3; the “CD25 Activation, Day 9, PB” value came out at 11.3. Besides, the “IFNy Concentration pg/ml, Day 6, IS” value stood at 75.9 pg/mL; the “IFNy Concentration pg/ml, Day 9, IS” value came out at 210 pg/mL; the “IFNy Concentration pg/ml, Day 9, PB” value worked out at 758 pg/mL; the “Ki67 Proliferation, Day 6, IS” value came to 1.29. For the same molecule, the “Ki67 Proliferation, Day 6, PB” value was 0.66; the “Ki67 Proliferation, Day 9, IS” value is 3.65; the “Ki67 Proliferation, Day 9, PB” value turned out to be 1.56.

Turning to B4, the “CD25 Activation, Day 6, IS” value was 14.7; the “CD25 Activation, Day 6, PB” value was 11.9; the “CD25 Activation, Day 9, IS” value is 10.3; the “CD25 Activation, Day 9, PB” value was 13.9. In addition, the “IFNy Concentration pg/ml, Day 6, IS” value was found to be 86.7 pg/mL; the “IFNy Concentration pg/ml, Day 9, IS” value came out at 217 pg/mL; the “IFNy Concentration pg/ml, Day 9, PB” value worked out at 166 pg/mL; the “Ki67 Proliferation, Day 6, IS” value worked out at 0.93. Moreover, the “Ki67 Proliferation, Day 6, PB” value amounted to 0.85; the “Ki67 Proliferation, Day 9, IS” value stood at 2.65; the “Ki67 Proliferation, Day 9, PB” value amounted to 0.39.

As to B5, the “CD25 Activation, Day 6, IS” value stood at 10.5; the “CD25 Activation, Day 6, PB” value was determined as 20; the “CD25 Activation, Day 9, IS” value was 10.9; the “CD25 Activation, Day 9, PB” value is 17.6. Moreover, the “IFNy Concentration pg/ml, Day 6, IS” value is 27.7 pg/mL; the “IFNy Concentration pg/ml, Day 9, IS” value came to 217 pg/mL; the “IFNy Concentration pg/ml, Day 9, PB” value was 1220 pg/mL; the “Ki67 Proliferation, Day 6, IS” value was determined as 2.63. The “Ki67 Proliferation, Day 6, PB” value stood at 0.2; the “Ki67 Proliferation, Day 9, IS” value was determined as 1.09; the “Ki67 Proliferation, Day 9, PB” value is 0.74.

On to B6, for which the “CD25 Activation, Day 6, IS” value stood at 11.3; the “CD25 Activation, Day 6, PB” value came out at 14.8; the “CD25 Activation, Day 9, IS” value stood at 13.5; the “CD25 Activation, Day 9, PB” value is 11.8. In addition, the “IFNy Concentration pg/ml, Day 6, IS” value was 54.4 pg/mL; the “IFNy Concentration pg/ml, Day 9, IS” value came to 384 pg/mL; the “IFNy Concentration pg/ml, Day 9, PB” value is 699 pg/mL; the “Ki67 Proliferation, Day 6, IS” value is 0.73. For the same molecule, the “Ki67 Proliferation, Day 6, PB” value stood at 0.98; the “Ki67 Proliferation, Day 9, IS” value came out at 0.9; the “Ki67 Proliferation, Day 9, PB” value came out at 2.73.

Another test deals with T1, canine CD20 on cells (HEK293, MDCK II, CLBL-1 or native B cells) (canine, UniProt Q3C2E2 1-297).
T1 construct: also called dCD20; cCD20
T1 chain: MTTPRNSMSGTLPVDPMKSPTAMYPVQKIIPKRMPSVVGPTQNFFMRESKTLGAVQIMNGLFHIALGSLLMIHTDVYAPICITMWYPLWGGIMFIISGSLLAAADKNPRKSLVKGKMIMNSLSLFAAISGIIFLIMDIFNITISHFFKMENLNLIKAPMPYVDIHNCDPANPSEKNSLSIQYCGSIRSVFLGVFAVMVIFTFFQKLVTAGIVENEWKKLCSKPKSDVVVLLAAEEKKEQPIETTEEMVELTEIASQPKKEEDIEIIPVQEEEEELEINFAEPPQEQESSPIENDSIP
The test can be described thus: flow cytometry, canine CD20 HEK293 cells, 10 µg/ml, FITC anti-canine IgG. How it is done: A CD20 binding screen was performed on candidate proteins produced from the canine CD20 immunisation as described in Examples 2 and 3. CHO cells supernatants containing candidate antibodies were diluted to 10 μg/ml in FACS buffer (PBS containing 3% FBS) and screened for their ability to bind canine CD20 expressed on cell surface. In brief, 1-2×10⁵ canine CD20-expressing HEK cells were incubated with candidate mAbs for one hour at 4° C., at a fixed concentration of 10 μg/ml followed by incubation with 5 μg/ml of FITC-conjugated anti-canine IgG secondary antibody (Bethyl Laboratories) for 1 hour at 4° C. Cells incubated with anti-canine IgG FITC secondary antibody and without primary anti-canine CD20 antibody, or with isotype control primary antibody, were used as negative controls. The data were acquired on either a Beckman Coulter CytoFLEX or a BD Accuri C6 Plus flow cytometer and analysed using FlowJo software.
Background: A flow cytometer gives signals particle by particle.
As for B7, the binding result is on record as “binds”.

Regarding B8, the binding result was “binds”.

With B9, the binding result is reported as “binds”.

On to B10, for which the binding result is “binds”.

For the molecule B11, the binding result is “binds”.
